Source: patent US20240261333A1, “NOVEL TARGETS FOR ENHANCING ANTI-TUMOR IMMUNITY” (THE BROAD INSTITUTE, INC., priority 2021, published 2024)

T1: B3GNT2 (Homo sapiens, UniProt Q9NY97)
T1 construct: The respective ORFs of candidate genes [CD274 (NM_014143), MCL1 (NM_021960), JUNB (NM_002229), and B3GNT2 (NM_006577)] were synthesized; expressed in transfected cells; host or cells: A375 melanoma cells (lentiviral ORF overexpression)
T1 sequence (Q9NY97 1-397): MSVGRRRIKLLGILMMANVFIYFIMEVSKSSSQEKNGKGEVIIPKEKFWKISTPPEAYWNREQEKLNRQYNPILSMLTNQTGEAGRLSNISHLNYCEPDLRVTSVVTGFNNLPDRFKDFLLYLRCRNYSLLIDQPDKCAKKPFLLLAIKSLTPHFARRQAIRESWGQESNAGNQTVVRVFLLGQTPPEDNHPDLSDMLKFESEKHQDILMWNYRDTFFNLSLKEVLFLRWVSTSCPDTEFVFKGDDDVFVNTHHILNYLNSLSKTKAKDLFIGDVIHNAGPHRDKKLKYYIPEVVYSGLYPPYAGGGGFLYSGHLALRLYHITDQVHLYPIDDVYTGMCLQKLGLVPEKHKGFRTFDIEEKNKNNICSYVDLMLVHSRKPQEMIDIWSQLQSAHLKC

B1: HLA-A (protein)
MHC heavy: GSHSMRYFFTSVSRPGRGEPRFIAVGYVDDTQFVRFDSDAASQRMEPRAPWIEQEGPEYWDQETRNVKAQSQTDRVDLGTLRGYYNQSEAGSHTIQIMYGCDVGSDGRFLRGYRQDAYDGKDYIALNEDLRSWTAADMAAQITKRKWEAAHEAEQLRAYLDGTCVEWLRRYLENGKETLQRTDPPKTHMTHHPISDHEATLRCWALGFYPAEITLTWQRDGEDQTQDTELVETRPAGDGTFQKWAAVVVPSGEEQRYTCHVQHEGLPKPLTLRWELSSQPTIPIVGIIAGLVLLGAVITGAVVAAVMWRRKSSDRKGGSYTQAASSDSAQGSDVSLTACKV
B2: SLC25A10 (protein)
chain: MAAEARVSRWYFGGLASCGAACCTHPLDLLKVHLQTQQEVKLRMTGMALRVVRTDGILALYSGLSASLCRQMTYSLTRFAIYETVRDRVAKGSQGPLPFHEKVLLGSVSGLAGGFVGTPADLVNVRMQNDVKLPQGQRRNYAHALDGLYRVAREEGLRRLFSGATMASSRGALVTVGQLSCYDQAKQLVLSTGYLSDNIFTHFVASFIAAAGDEPPPQGGCATFLCQPLDVLKTRLMNSKGEYQGVFHCAVETAKLGPLAFYKGLVPAGIRLIPHTVLTFVFLEQLRKNFGIKVPS
B3: TUBA1C (protein, UniProt Q9BQE3 1-449, looked up)
Tubulin alpha-1C chain: MRECISIHVGQAGVQIGNACWELYCLEHGIQPDGQMPSDKTIGGGDDSFNTFFSETGAGKHVPRAVFVDLEPTVIDEVRTGTYRQLFHPEQLITGKEDAANNYARGHYTIGKEIIDLVLDRIRKLADQCTGLQGFLVFHSFGGGTGSGFTSLLMERLSVDYGKKSKLEFSIYPAPQVSTAVVEPYNSILTTHTTLEHSDCAFMVDNEAIYDICRRNLDIERPTYTNLNRLISQIVSSITASLRFDGALNVDLTEFQTNLVPYPRIHFPLATYAPVISAEKAYHEQLTVAEITNACFEPANQMVKCDPRHGKYMACCLLYRGDVVPKDVNAAIATIKTKRTIQFVDWCPTGFKVGINYQPPTVVPGGDLAKVQRAVCMLSNTTAVAEAWARLDHKFDLMYAKRAFVHWYVGEGMEEGEFSEAREDMAALEKDYEEVGADSADGEDEGEEY
B4: ACSL3 (protein)
chain: MNNHVSSKPSTMKLKHTINPILLYFIHFLISLYTILTYIPFYFFSESRQEKSNRIKAKPVNSKPDSAYRSVNSLDGLASVLYPGCDTLDKVFTYAKNKFKNKRLLGTREVLNEEDEVQPNGKIFKKVILGQYNWLSYEDVFVRAFNFGNGLQMLGQKPKTNIAIFCETRAEWMIAAQACFMYNFQLVTLYATLGGPAIVHALNETEVTNIITSKELLQTKLKDIVSLVPRLRHIITVDGKPPTWSEFPKGIIVHTMAAVEALGAKASMENQPHSKPLPSDIAVIMYTSGSTGLPKGVMISHSNIIAGITGMAERIPELGEEDVYIGYLPLAHVLELSAELVCLSHGCRIGYSSPQTLADQSSKIKKGSKGDTSMLKPTLMAAVPEIMDRIYKNVMNKVSEMSSFQRNLFILAYNYKMEQISKGRNTPLCDSFVFRKVRSLLGGNIRLLLCGGAPLSATTQRFMNICFCCPVGQGYGLTESAGAGTISEVWDYNTGRVGAPLVCCEIKLKNWEEGGYFNTDKPHPRGEILIGGQSVTMGYYKNEAKTKADFFEDENGQRWLCTGDIGEFEPDGCLKIIDRKKDLVKLQAGEYVSLGKVEAALKNLPLVDNICAYANSYHSYVIGFVVPNQKELTELARKKGLKGTWEELCNSCEMENEVLKVLSEAAISASLEKFEIPVKIRLSPEPWTPETGLVTDAFKLKRKELKTHYQADIERMYGRK
B5: TM9SF3 (protein)
chain: DEHEHTYQDKEEVVLWMNTVGPYHNRQETYKYFSLPFCVGSKKSISHYHETLGEALQGVELEFSGLDIKFKDDVMPATYCEIDLDKEKRDAFVYAIKNHYWYQMYIDDLPIWGIVGEADENGEDYYLWTYKKLEIGFNGNRIVDVNLTSEGKVKLVPNTKIQMSYSVKWKKSDVKFEDRFDKYLDPSFFQHRIHWFSIFNSFMMVIFLVGLVSMILMRTLRKDYARYSKEEEMDDMDRDLGDEYGWKQVHGDVFRPSSHPLIFSSLIGSGCQIFAVSLIVIIVAMIEDLYTERGSMLSTAIFVYAATSPVNGYFGGSLYARQGGRRWIKQMFIGAFLIPAMVCGTAFFINFIAIYYHASRAIPFGTMVAVCCICFFVILPLNLVGTILGRNLSGQPNFPCRVNAVPRPIPEKKWFMEPAVIVCLGGILPFGSIFIEMYFIFTSFWAYKIYYVYGFMMLVLVILCIVTVCVTIVCTYFLLNAEDYRWQWTSFLSAASTAIYVYMYSFYYYFFKTKMYGLFQTSFYFGYMAVFSTALGIMCGAIGYMGTSAFVRKIYTNVKID
B6: SLC25A22 (protein)
chain: MADKQISLPAKLINGGIAGLIGVTCVFPIDLAKTRLQNQQNGQRVYTSMSDCLIKTVRSEGYFGMYRGAAVNLTLVTPEKAIKLAANDFFRHQLSKDGQKLTLLKEMLAGCGAGTCQVIVTTPMEMLKIQLQDAGRIAAQRKILAAQGQLSAQGGAQPSVEAPAAPRPTATQLTRDLLRSRGIAGLYKGLGATLLRDVPFSVVYFPLFANLNQLGRPASEEKSPFYVSFLAGCVAGSAAAVAVNPCDVVKTRLQSLQRGVNEDTYSGILDCARKILRHEGPSAFLKGAYCRALVIAPLFGIAQVVYFLGIAESLLGLLQDPQA
B7: SFXN3 (protein)
chain: MGELPLDINIQEPRWDQSTFLGRARHFFTVTDPRNLLLSGAQLEASRNIVQNYRAGVVTPGITEDQLWRAKYVYDSAFHPDTGEKVVLIGRMSAQVPMNMTITGCMLTFYRKTPTVVFWQWVNQSFNAIVNYSNRSGDTPITVRQLGTAYVSATTGAVATALGLKSLTKHLPPLVGRFVPFAAVAAANCINIPLMRQRELQVGIPVADEAGQRLGYSVTAAKQGIFQVVISRICMAIPAMAIPPLIMDTLEKKDFLKRRPWLGAPLQVGLVGFCLVFATPLCCALFPQKSSIHISNLEPELRAQIHEQNPSVEVVYYNKGL
B8: MYO1D (protein)
chain: AEQESLEFGKADFVLMDTVSMPEFMANLRLRFEKGRIYTFIGEVVVSVNPYKLLNIYGRDTIEQYKGRELYERPPHLFAIADAAYKAMKRRSKDTCIVISGESGAGKTEASKYIMQYIAAITNPSQRAEVERVKNMLLKSNCVLEAFGNAKTNRNDNSSRFGKYMDINFDFKGDPIGGHINNYLLEKSRVIVQQPGERSFHSFYQLLQGGSEQMLRSLHLQKSLSSYNYIHVGAQLKSSINDAAEFRVVADAMKVIGFKPEEIQTVYKILAAILHLGNLKFVVDGDTPLIENGKVVSIIAELLSTKTDMVEKALLYRTVATGRDIIDKQHTEQEASYGRDAFAKAIYERLFCWIVTRINDIIEVKNYDTTIHGKNTVIGVLDIYGFEIFDNNSFEQFCINYCNEKLQQLFIQLVLKQEQEEYQREGIPWKHIDYFNNQIIVDLVEQQHKGIIAILDDACMNVGKVTDEMFLEALNSKLGKHAHFSSRKLCASDKILEFDRDFRIRHYAGDVVYSVIGFIDKNKDTLFQDFKRLMYNSSNPVLKNMWPEGKLSITEVTKRPLTAATLFKNSMIALVDNLASKEPYYVRCIKPNDKKSPQIFDDERCRHQVEYLGLLENVRVRRAGFAFRQTYEKFLHRYKMISEFTWPNHDLPSDKEAVKKLIERCGFQDDVAYGKTKIFIRTPRTLFTLEELRAQMLIRIVLFLQKVWRGTLARMRYKRTKAALTIIRYYRRYKVKSYIHEVARRFHGVKTMRDYGKHVKWPSPPKVLRRFEEALQTIFNRWRASQLIKSIPASDLPQVRAKVAAVEMLKGQRADLGLQRAWEGNYLASKPDTPQTSGTFVPVANELKRKDKYMNVLFSCHVRKVNRFSKVEDRAIFVTDRHLYKMDPTKQYKVMKTIPLYNLTGLSVSNGKDQLVVFHTKDNKDLIVCLFSKQPTHESRIGELVGVLVNHFKSEKRHLQVNVTNPVQCSLHGKKCTVSVETRLNQPQPDFTKNRSGFILSVPGN

Biological target: T1, B3GNT2
Experiment: Co-IP of FLAG-tagged B3GNT2 followed by mass spectrometry
Assay type: cell-based
Parameters: C-term IgG / C-term flag: unit not given here
Settings: mass spectrometry count, unit not given; for C-term flag / N-term FLAG: Co-IP with FLAG antibody; for C-term flag / C-term IgG: C-terminally FLAG-tagged B3GNT2; for N-term FLAG / N-term IgG: N-terminally FLAG-tagged B3GNT2; for C-term IgG / N-term IgG: Co-IP with IgG control antibody
In short: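 Co-purifying proteins were identified by fractionated nano-LC–MS/MS on an Orbitrap Elite, run data-dependent. Beforehand, lysates in 1% Triton X-100/HEPES buffer were incubated overnight at 4° C with anti-FLAG or […] and pulled down on Protein A/G magnetic beads for 4 h. Duplicate biological replicates.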

Row | Molecule | C-term flag | N-term FLAG | C-term IgG | N-term IgG
1 | B1 | 4 | 6 | 0 | 0
2 | B2 | 6 | 5 | 0 | 0
3 | B3 | 63 | 76 | 14 | 8
4 | B4 | 5 | 5 | 0 | 0
5 | B5 | 11 | 0 | 0 | 0
6 | B6 | 2 | 0 | 0 | 0
7 | B7 | 2 | 0 | 0 | 0
8 | B8 | 2 | 0 | 0 | 0
